Legend:
HLA-B*51:01 [1] = assay: IEDB peptide-MHC binding, purified MHC/direct/fluorescence; filed as Kd, often an IC50 or EC50 that approximates it; ≥ and ≤ were set here for values at or beyond the usual limits of such assays
HLA-B*07:02 [2] = assay: as above
HLA-A*26:01 [3] = assay: IEDB peptide-MHC binding, purified MHC/competitive/fluorescence; filed as Kd, often an IC50 or EC50 that approximates it; ≥ and ≤ were set here for values at or beyond the usual limits of such assays; details: source organism: Orthohantavirus sinnombreense
HLA-B*15:17 = assay: as above
HLA-B*51:01 [4] = assay: as above; details: source organism: Orthohantavirus sinnombreense
HLA-B*27:03 = assay: as above; details: source organism: Orthohantavirus sinnombreense
HLA-A*24:03 = assay: IEDB peptide-MHC binding, purified MHC/direct/fluorescence; filed as Kd, often an IC50 or EC50 that approximates it; ≥ and ≤ were set here for values at or beyond the usual limits of such assays; details: source organism: Convict Creek 107 virus
HLA-A*68:02 [5] = assay: as above; details: source organism: Convict Creek 107 virus
HLA-B*58:01 = assay: as above
HLA-A*03:01 [6] = assay: as above
HLA-A*31:01 [7] = assay: as above
HLA-B*08:01 [8] = assay: as above
HLA-B*40:01 = assay: as above
HLA-B*57:01 = assay: as above
HLA-A*69:01 = assay: as above
HLA-A*11:01 [9] = assay: as above
HLA-B*18:01 = assay: as above; details: source organism: Orthohantavirus andesense
HLA-A*29:02 = assay: as above
HLA-A*01:01 [10] = assay: as above
HLA-B*27:05 = assay: as above
HLA-B*46:01 = assay: as above
HLA-B*39:01 = assay: as above; details: source organism: Influenza A virus H3N2
HLA-A*02:03 = assay: IEDB peptide-MHC binding, purified MHC/competitive/radioactivity; filed as Kd, often an IC50 or EC50 that approximates it; ≥ and ≤ were set here for values at or beyond the usual limits of such assays
HLA-A*68:02 [11] = assay: as above
HLA-A*03:01 [12] = assay: as above
HLA-A*31:01 [13] = assay: as above
HLA-B*08:01 [14] = assay: as above
HLA-B*51:01 [15] = assay: as above
HLA-B*07:02 [16] = assay: as above
HLA-A*02:02 = assay: as above
HLA-A*11:01 [17] = assay: as above
HLA-B*53:01 = assay: as above
HLA-A*02:06 = assay: as above
HLA-B*35:01 = assay: as above
HLA-B*54:01 = assay: as above
HLA-A*68:01 = assay: as above
HLA-A*01:01 [18] = assay: as above; details: source organism: Hepacivirus hominis
HLA-A*33:01 = assay: as above
HLA-A*02:01 [19] = assay: as above
HLA-B*15:01 = assay: IEDB peptide-MHC binding, purified MHC/direct/fluorescence; filed as Kd, often an IC50 or EC50 that approximates it; ≥ and ≤ were set here for values at or beyond the usual limits of such assays; details: source organism: Bacillus licheniformis
HLA-A*26:01 [20] = assay: as above; details: source organism: Bacillus licheniformis
HLA-A*02:01 [21] = assay: as above
HLA-B*44:02 = assay: as above; details: source organism: Corynebacterium diphtheriae
HLA-B*48:01 = assay: as above; details: source organism: Corynebacterium diphtheriae
[22] = source organism: Giardia lamblia ATCC 50803
[23] = source organism: Orthohantavirus andesense
[24] = source organism: Hepacivirus hominis
[25] = source organism: Bacillus licheniformis
[26] = source organism: Corynebacterium diphtheriae
[27] = source organism: Vaccinia virus WR

## EALAMCLPY
HLA-B*51:01 [1]; [22]
  Kd: ≥ 20 µM
HLA-B*07:02 [2]; [22]
  Kd: 5.2 µM

## YLQAKSQVL
HLA-A*26:01 [3]
  Kd: ≥ 20 µM
HLA-B*15:17; source organism: Orthohantavirus sinnombreense
  Kd: ≥ 20 µM
HLA-B*51:01 [4]
  Kd: ≥ 20 µM
HLA-B*27:03
  Kd: ≥ 20 µM
HLA-A*24:03
  Kd: ≥ 20 µM
HLA-A*68:02 [5]
  Kd: ≥ 20 µM
HLA-B*58:01; [23]
  Kd: ≥ 20 µM
HLA-A*03:01 [6]; [23]
  Kd: ≥ 20 µM
HLA-A*31:01 [7]; [23]
  Kd: ≥ 20 µM
HLA-B*08:01 [8]; [23]
  Kd: 0.471 µM
HLA-B*40:01; [23]
  Kd: ≥ 20 µM
HLA-B*57:01; [23]
  Kd: ≥ 20 µM
HLA-A*69:01; [23]
  Kd: ≥ 20 µM
HLA-A*11:01 [9]; [23]
  Kd: ≥ 20 µM
HLA-B*18:01
  Kd: ≥ 20 µM
HLA-A*29:02; [23]
  Kd: ≥ 20 µM
HLA-A*01:01 [10]; [23]
  Kd: ≥ 20 µM
HLA-B*27:05; [23]
  Kd: ≥ 20 µM
HLA-B*46:01; [23]
  Kd: ≥ 20 µM

## FHGAKEIAL
HLA-B*39:01
  Kd: 0.175 µM

## AVSRGTAKL
HLA-B*51:01 [1]; source organism: Alkhumra hemorrhagic fever virus
  Kd: ≥ 20 µM

## HSKRKCDEL
HLA-A*02:03; [24]
  Kd: 12.4 µM
HLA-A*68:02 [11]; [24]
  Kd: ≥ 69.8 µM
HLA-A*03:01 [12]; [24]
  Kd: ≥ 78 µM
HLA-A*31:01 [13]; [24]
  Kd: ≥ 77.9 µM
HLA-B*08:01 [14]; [24]
  Kd: ≥ 77.6 µM
HLA-B*51:01 [15]; [24]
  Kd: ≥ 46.5 µM
HLA-B*07:02 [16]; [24]
  Kd: ≥ 59.8 µM
HLA-A*02:02; [24]
  Kd: ≥ 43.4 µM
HLA-A*11:01 [17]; [24]
  Kd: ≥ 77.9 µM
HLA-B*53:01; [24]
  Kd: ≥ 30.1 µM
HLA-A*02:06; [24]
  Kd: 1.15 µM
HLA-B*35:01; [24]
  Kd: ≥ 77.4 µM
HLA-B*54:01; [24]
  Kd: ≥ 36.1 µM
HLA-A*68:01; [24]
  Kd: ≥ 77.7 µM
HLA-A*01:01 [18]
  Kd: ≥ 59.8 µM
HLA-A*33:01; [24]
  Kd: ≥ 77.7 µM
HLA-A*02:01 [19]; [24]
  Kd: ≥ 33.9 µM

## MPVMKRYSA
HLA-B*51:01 [1]; source organism: dengue virus type 4
  Kd: ≥ 20 µM
HLA-B*08:01 [14]; source organism: Dengue virus 4 Philippines/H241/1956
  Kd: 0.00838 µM

## KTIECSKEL
HLA-B*15:17; [25]
  Kd: 0.0099 µM
HLA-B*15:01
  Kd: 0.468 µM
HLA-A*26:01 [20]
  Kd: ≥ 20 µM
HLA-B*58:01; [25]
  Kd: 0.279 µM
HLA-A*03:01 [6]; [25]
  Kd: ≥ 20 µM
HLA-A*31:01 [7]; [25]
  Kd: 5.6 µM
HLA-B*08:01 [8]; [25]
  Kd: ≥ 20 µM
HLA-B*40:01; [25]
  Kd: ≥ 20 µM
HLA-A*69:01; [25]
  Kd: ≥ 20 µM
HLA-B*07:02 [2]; [25]
  Kd: ≥ 20 µM
HLA-A*11:01 [9]; [25]
  Kd: ≥ 20 µM
HLA-A*01:01 [10]; [25]
  Kd: ≥ 20 µM
HLA-B*27:05; [25]
  Kd: ≥ 20 µM
HLA-A*02:01 [21]; [25]
  Kd: 0.235 µM

## VERRLVKVL
HLA-B*44:02
  Kd: ≥ 20 µM
HLA-B*58:01; [26]
  Kd: ≥ 20 µM
HLA-A*03:01 [6]; [26]
  Kd: ≥ 20 µM
HLA-A*31:01 [7]; [26]
  Kd: ≥ 20 µM
HLA-B*08:01 [8]; [26]
  Kd: 7 µM
HLA-B*57:01; [26]
  Kd: ≥ 20 µM
HLA-B*07:02 [2]; [26]
  Kd: ≥ 20 µM
HLA-A*11:01 [9]; [26]
  Kd: ≥ 20 µM
HLA-B*48:01
  Kd: ≥ 20 µM
HLA-A*29:02; [26]
  Kd: ≥ 20 µM
HLA-A*01:01 [10]; [26]
  Kd: ≥ 20 µM
HLA-B*27:05; [26]
  Kd: ≥ 20 µM
HLA-A*02:01 [21]; [26]
  Kd: ≥ 20 µM
HLA-B*46:01; [26]
  Kd: ≥ 20 µM

## IVLFQRFLR
HLA-A*02:03; [27]
  Kd: ≥ 48.1 µM
HLA-A*68:02 [11]; [27]
  Kd: ≥ 51.9 µM
HLA-A*03:01 [12]; [27]
  Kd: 0.242 µM
HLA-A*31:01 [13]; [27]
  Kd: 0.000185 µM
HLA-B*51:01 [15]; [27]
  Kd: ≥ 77.5 µM
HLA-B*07:02 [16]; [27]
  Kd: ≥ 77.5 µM
HLA-A*02:02; [27]
  Kd: ≥ 54.2 µM
HLA-A*11:01 [17]; [27]
  Kd: 0.0134 µM
HLA-B*53:01; [27]
  Kd: ≥ 78.2 µM
HLA-A*02:06; [27]
  Kd: ≥ 47.7 µM
HLA-B*35:01; [27]
  Kd: ≥ 21.9 µM
HLA-B*54:01; [27]
  Kd: ≥ 78.1 µM
HLA-A*68:01; [27]
  Kd: 0.00124 µM
HLA-A*33:01; [27]
  Kd: 0.00238 µM
HLA-A*02:01 [19]; [27]
  Kd: ≥ 78.1 µM
